Experimental data reported in US20260266833A1 (AXOIYA, published 2026).
Like-named read-outs stand apart in the source and are kept apart here. Each block holds one binder with its values, some of them ahead of it. Non-standard residues stand in square brackets, D forms with d. No end group written: not given here. *: point of attachment. Biotin = O=C1N[C@H]2[C@H](CS[C@H]2CCCCC(=O)*)N1; Arg(Me) = CNC(=N)NCCC[C@H](N)C(=O)O; Ahx = NCCCCCC(=O)O

B3: H3K27me3 peptide (peptide)
peptide: KQLATKAARKSAPATGGVK
modifications: Kme3 (trimethyl-lysine) at the 10th residue (KQLATKAARKme3SAPATGGVK); N-terminus biotin + aminohexanoic acid linker, or FITC at the N-terminus for fluorescence polarization
notes: Synthetic peptide (GenScript); One entry is used for the biotinylated and the FITC-labelled form

Tests used:
H3K27me1 = target: T1, H3K27me1 (Kme1 at peptide residue 10 (histone H3 K27); N-terminal biotin and aminohexanoic acid linker); assay: luciferase-fusion assay on immobilized peptide
T1 construct: also called H3K27Me1 peptide
T1 peptide: KQLATKAARKSAPATGGVK
Protocol: (§1) For luciferase-based assays, 384-well white plates (PerkinElmer) were coated for 16 h at 4° C. with 4 μg/ml streptavidin (New England Biolabs, N7021S) in TBS pH 8.5 (50 mM Tris-HCl pH 8.5, 150 mM NaCl). Each well was blocked with 60 μl/well of TBS pH 8.5 containing 0.5% BSA (TB buffer) and incubated at 25° C. for 1 h. Plates were washed four times with 90 μl/well of PBS pH 7.4, 0.05% Tween-20 (PT buffer) and incubated with 25 μl/well of biotinylated histone peptides at 5 μg/ml in TB buffer pH 8.5 for 30 min at 25° C. Plates were washed and incubated with Cbx chromodomain-luciferase fusions diluted to 0.1 nM for Cbx. VD or 100 nM for Cbx.wt in TB buffer, 0.05% Tween-20, 1 mM DTT, 5% glycerol (TBT buffer). Plates were incubated for 1 h at 25° C. with gentle shaking, washed six times and luminescence intensity was measured with a Biotek Synergy 5 plate reader (Biotek) using the ONE-Glo™ EX luciferase assay system reagent (Promega). Following background subtraction of the luminescence signal derived from wells coated with streptavidin, the luminescence intensity was normalized to wells with immobilized H3K9me3 peptide.
(§2) To enhance detection sensitivity, each chromodomain was expressed as a fusion to the N-terminus of an engineered firefly luciferase and binding was measured by luminescence intensity.

[1] = target: T2, H3K27 peptide (non-methylated) (also: N-terminal biotin + Ahx, or FITC at N-terminus); assay: luciferase-fusion assay on immobilized peptide
T2 construct: also called unmethylated H3K27 peptide
T2 peptide: KQLATKAARKSAPATGGVK
Protocol: as §1, §2

H3K27me2 = target: T3, H3K27me2 (Kme2 at peptide residue 10 (histone H3 K27); N-terminal biotin and aminohexanoic acid linker); assay: luciferase-fusion assay on immobilized peptide
T3 construct: also called H3K27Me2 peptide
T3 peptide: KQLATKAARKSAPATGGVK
Protocol: as §1, §2

H3R17 = target: T4, H3R17; assay: luciferase-fusion assay on immobilized peptide
T4 construct: also called H3R17 peptide (non-modified)
T4 peptide: {Biotin-Ahx}-KSTGGKAPRKQLATKAA
Protocol: as §1, §2

H3R17me1 = target: T5, H3R17me1; assay: luciferase-fusion assay on immobilized peptide
T5 construct: also called H3R17me1 peptide
T5 peptide: {Biotin-Ahx}-KSTGGKAP[Arg(Me)]KQLATKAA
Protocol: as §1, §2

H3K14 = target: T6, H3K14; assay: luciferase-fusion assay on immobilized peptide
T6 construct: also called H3K14 peptide (non-modified)
T6 peptide: {Biotin-Ahx}-TARKSTGGKAPRKQLAT
Protocol: as §1, §2

H3K27me3 peptide [2] = target: B3; assay: luciferase-fusion assay on immobilized peptide
Protocol: as §1, §2

H3K9me2 = target: T7, H3K9me2 (Kme2 at peptide residue 9 (histone H3 K9); N-terminal biotin and aminohexanoic acid linker); assay: luciferase-fusion assay on immobilized peptide
T7 construct: also called H3K9Me2 peptide
T7 peptide: ARTKQTARKSTGGKAPR
Protocol: as §1, §2

H4K20me3 = target: T8, H4K20me3 (Kme3 at peptide residue 8 (histone H4 K20); N-terminal biotin and aminohexanoic acid linker); assay: luciferase-fusion assay on immobilized peptide
T8 construct: also called H4K20Me3 peptide
Protocol: as §1, §2

H4K20 peptide = H4K20 peptide (N-terminus biotin + aminohexanoic acid linker); assay: luciferase-fusion assay on immobilized peptide
Protocol: as §1, §2

H3K14Ac = target: T9, H3K14Ac; assay: luciferase-fusion assay on immobilized peptide
T9 construct: also called H3K14Ac peptide
T9 peptide: {Biotin-Ahx}-TARKSTGGK(Ac)APRKQLAT
Protocol: as §1, §2

H3K9me1 = target: T10, H3K9me1 (Kme1 at peptide residue 9 (histone H3 K9); N-terminal biotin and aminohexanoic acid linker); assay: luciferase-fusion assay on immobilized peptide
T10 construct: also called H3K9Me1 peptide
T10 peptide: ARTKQTARKSTGGKAPR
Protocol: as §1, §2

H3K9Ac = target: T11, H3K9Ac (Kac at peptide residue 9 (histone H3 K9); N-terminal biotin and aminohexanoic acid linker); assay: luciferase-fusion assay on immobilized peptide
T11 construct: also called H3K9Ac peptide
T11 peptide: ARTKQTARKSTGGKAPR
Protocol: as §1, §2

[3] = target: T12, H3K9 peptide (non-methylated) (also: N-terminal FITC, or biotin + Ahx); assay: luciferase-fusion assay on immobilized peptide
T12 construct: also called unmethylated H3K9 peptide
T12 peptide: ARTKQTARKSTGGKAPR
Protocol: as §1, §2

[4] = target: Cbx3.wt chromodomain (tags removed) (human, UniProt Q13185 23-81); assay: fluorescence polarization
Sequence of Cbx3.wt chromodomain (tags removed) (Q13185 23-81 limits assumed): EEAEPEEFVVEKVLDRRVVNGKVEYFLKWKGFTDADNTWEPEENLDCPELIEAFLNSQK
Protocol: (§3) Fluorescence polarization (FP) assays were performed in a 20 μl volume at a constant histone peptide concentration of 0.5 nM. Binding measurements were performed in FP buffer (25 mM HEPES pH 7.5, 150 mM NaCl, 1 mM DTT, 0.01% TritonX-100) by mixing in a 384-well black plate (Corning) 0.5 nM FITC-labeled histone peptides with serial dilutions of wild-type Cbx chromodomains ranging from 200-0.2 μM. For affinity determination of Cbx7.V1 and all Cbx. VDs, chromodomains were serially diluted from 50 μM to 50 nM. Samples were incubated for 30 min at 25° C. prior to data acquisition. […] Dissociation constants were determined using Prismv.9.3 (GraphPad Software Inc) with a one-site total binding model.
(§4) FP assays was used to measure the affinities of each wild-type Cbx chromodomain (Cbx.wt) and its Cbx. VD version for the H3K9me3 and H3K27me3 peptides (Table 13).

[5] = target: T13, Cbx1.wt chromodomain (tags removed) (human, UniProt P83916 17-79); assay: fluorescence polarization
T13 construct: also called Cbx1-chromo
T13 sequence (P83916 17-79 limits assumed): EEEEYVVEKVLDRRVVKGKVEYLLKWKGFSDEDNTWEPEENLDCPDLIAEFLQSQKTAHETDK
Protocol: as §3, §4

[6] = target: Cbx5.wt chromodomain (tags removed) (human, UniProt P45973 17-78); assay: fluorescence polarization
Sequence of Cbx5.wt chromodomain (tags removed) (P45973 17-78 limits assumed): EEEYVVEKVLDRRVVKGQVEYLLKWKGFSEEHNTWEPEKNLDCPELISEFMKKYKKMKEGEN
Protocol: as §3, §4

[7] = target: T14, Cbx6.wt chromodomain (tags removed) (human, UniProt O95503 6-69); assay: fluorescence polarization
T14 construct: also called Cbx6-chromo
T14 sequence: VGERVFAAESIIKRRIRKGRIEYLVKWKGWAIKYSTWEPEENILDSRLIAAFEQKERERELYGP
Protocol: as §3, §4

[8] = target: T15, Cbx7.wt chromodomain (tags removed) (human, UniProt O95931 4-75); assay: fluorescence polarization, FITC-peptide 0.5 nM
T15 construct: also called Cbx7-chromo
T15 sequence: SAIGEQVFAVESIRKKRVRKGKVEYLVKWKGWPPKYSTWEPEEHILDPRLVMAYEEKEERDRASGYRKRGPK
Protocol: as §3

[9] = target: T16, Cbx2.wt chromodomain (tags removed) (human, UniProt Q14781 8-70); assay: fluorescence polarization, FITC-peptide 0.5 nM
T16 sequence: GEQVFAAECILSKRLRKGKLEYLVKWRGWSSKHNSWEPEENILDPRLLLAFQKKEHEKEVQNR
Protocol: as §3, §4

[10] = target: T15, Cbx7.wt chromodomain (tags removed); assay: fluorescence polarization, FITC-peptide 0.5 nM; remark: listed apart in the source
Protocol: as §3, §4

H3K27me3 peptide [11] = target: B3; assay: ITC, peptide titrated into the chromodomain, 25 C
Protocol: Dissociation constants were determined using the one-site binding model supplied in MicroCal PEAQ-ITC analysis software (version 1.1.0.1262) with the fitted offset control. Data are the average from three independent experiments ±1 SD.

H3K27me3 peptide [12] = target: B3; assay: fluorescence polarization, FITC-peptide 0.5 nM
Protocol: as §3

H3K27me3 peptide [13] = target: B3; assay: fluorescence polarization
Protocol: as §3, §4

Binder: B3
binding result [4]: no binding
binding result [5]: no binding
binding result [6]: no binding
binding result [7]: no binding
Kd [8]: 110 µM
Kd [9]: 100 µM
Kd [10]: 110 µM

B4: Cbx7.V1 chromodomain (tags removed) (designed binder)
chain: SAIGDDIFAVESIRKKRVRKGKVEYLVKWEGWPLEYSTWEPEEHILDPRLVMAYEEKEERDRASGYRKRGPK
notes: ITC and FP: His6 and Flag tags removed with TEV protease
Kd (H3K27me3 peptide [11]): 7.8 µM
Kd (H3K27me3 peptide [12]): 4 µM

Second part, the binder after the results:

binding result (H3K27me1): no binding (tested: 0.1 nM)
binding result [1]: no binding (tested: 0.1 nM)
binding result (H3K27me2): no binding (tested: 0.1 nM)
binding result (H3R17): no binding (tested: 0.1 nM)
binding result (H3R17me1): no binding (tested: 0.1 nM)
binding result (H3K14): no binding (tested: 0.1 nM)
binding result (H3K27me3 peptide [2]): no binding (tested: 0.1 nM)
B1: Cbx6.VD chromodomain-luciferase fusion (designed binder)
chain: MSYYHHHHHHGSDYKDDDDKSSGENLYFQGSGGSVGDRVFAAESIIKRRIRKGRIEYLVKWEGWAIKYSTWEPEENILDSRLIAAFEQKERERELYGP
notes: not shown: engineered YY5 firefly luciferase from Photinus pyralis fused to the C-terminus

binding result (H3K9me2): no binding (tested: 100 nM)
binding result (H3K27me1): no binding (tested: 100 nM)
binding result (H4K20me3): no binding (tested: 100 nM)
binding result [1]: no binding (tested: 100 nM)
binding result (H3K27me2): no binding (tested: 100 nM)
binding result (H3R17): no binding (tested: 100 nM)
binding result (H4K20 peptide): no binding (tested: 100 nM)
binding result (H3K14Ac): no binding (tested: 100 nM)
binding result (H3K9me1): no binding (tested: 100 nM)
binding result (H3R17me1): no binding (tested: 100 nM)
binding result (H3K14): no binding (tested: 100 nM)
binding result (H3K9Ac): no binding (tested: 100 nM)
binding result [3]: no binding (tested: 100 nM)
B2: Cbx8.wt chromodomain-luciferase fusion (other)
chain: MSYYHHHHHHGSDYKDDDDKSSGENLYFQGSGGSGERVFAAEALLKRRIRKGRMEYLVKWKGWSQKYSTWEPEENILDARLLAAFEEREREMELYGP
notes: as for B1

binding result (H3K27me3 peptide [13]): no binding
B5: Cbx6.VD chromodomain (tags removed) (designed binder)
chain: VGDRVFAAESIIKRRIRKGRIEYLVKWEGWAIKYSTWEPEENILDSRLIAAFEQKERERELYGP
